Holding throughout (assay): FRET or BRET; AZ-mRuby2 titrated (100 pM-1 µM) to a fixed concentration of Clover-AZIN1 variants (50 nM); TBS pH 7.4 + 0.15% Tween-20; equilibrated at room temp for 1 h; donor quenching fitted
What all share (settings): both partners purified
Background: BRET reads energy transfer from a luciferase to a nearby fluorophore.

Assay [1] concerns the target T1, Clover-AZIN1 S367N mutant, recombinant fusion protein (human, UniProt O14977 1-448, S367N).
T1 construct: source: E. coli (pBAD vector), purified recombinant; not shown: Clover, N-terminal, kept
T1 sequence (looked up): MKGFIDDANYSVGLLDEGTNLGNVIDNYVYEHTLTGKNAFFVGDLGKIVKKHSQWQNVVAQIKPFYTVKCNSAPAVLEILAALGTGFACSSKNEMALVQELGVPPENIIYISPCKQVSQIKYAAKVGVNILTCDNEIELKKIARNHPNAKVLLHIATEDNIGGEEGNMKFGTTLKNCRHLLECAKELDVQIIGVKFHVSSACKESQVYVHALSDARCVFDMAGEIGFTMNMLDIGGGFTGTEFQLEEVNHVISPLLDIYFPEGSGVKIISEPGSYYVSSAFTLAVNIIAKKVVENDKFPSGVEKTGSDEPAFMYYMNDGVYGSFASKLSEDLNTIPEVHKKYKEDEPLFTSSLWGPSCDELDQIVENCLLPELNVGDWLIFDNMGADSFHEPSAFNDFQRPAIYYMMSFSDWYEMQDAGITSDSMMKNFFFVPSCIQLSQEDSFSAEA

Assay [2] concerns the target T2, Clover-AZIN1 (wild type), recombinant fusion protein (human, UniProt O14977 1-448).
T2 construct: The vector encodes the 6X-HIS-tagged fluorescent protein with a TEV protease cleavage site; also called wild-type protein; hAZIN1; source: E. coli (pBAD vector), purified recombinant; not shown: Clover, N-terminal, kept
T2 sequence (looked up): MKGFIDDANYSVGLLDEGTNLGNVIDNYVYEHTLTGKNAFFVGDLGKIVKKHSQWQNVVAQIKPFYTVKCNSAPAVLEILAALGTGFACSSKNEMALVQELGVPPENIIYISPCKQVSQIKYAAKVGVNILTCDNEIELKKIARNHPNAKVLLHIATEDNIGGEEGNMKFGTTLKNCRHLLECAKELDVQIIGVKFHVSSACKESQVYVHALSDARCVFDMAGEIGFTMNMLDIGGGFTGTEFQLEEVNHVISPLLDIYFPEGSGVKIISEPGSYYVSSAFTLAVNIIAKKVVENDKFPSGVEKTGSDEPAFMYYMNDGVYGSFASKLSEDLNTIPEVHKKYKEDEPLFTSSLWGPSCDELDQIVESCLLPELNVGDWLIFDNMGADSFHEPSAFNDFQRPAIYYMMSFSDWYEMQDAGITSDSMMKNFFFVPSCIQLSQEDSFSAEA

The target in assay [3] is T3, Clover-AZIN1 S367A mutant, recombinant fusion protein (human, UniProt O14977 1-448, S367A).
T3 construct: source: E. coli (pBAD vector), purified recombinant; not shown: Clover, N-terminal, kept
T3 sequence (looked up): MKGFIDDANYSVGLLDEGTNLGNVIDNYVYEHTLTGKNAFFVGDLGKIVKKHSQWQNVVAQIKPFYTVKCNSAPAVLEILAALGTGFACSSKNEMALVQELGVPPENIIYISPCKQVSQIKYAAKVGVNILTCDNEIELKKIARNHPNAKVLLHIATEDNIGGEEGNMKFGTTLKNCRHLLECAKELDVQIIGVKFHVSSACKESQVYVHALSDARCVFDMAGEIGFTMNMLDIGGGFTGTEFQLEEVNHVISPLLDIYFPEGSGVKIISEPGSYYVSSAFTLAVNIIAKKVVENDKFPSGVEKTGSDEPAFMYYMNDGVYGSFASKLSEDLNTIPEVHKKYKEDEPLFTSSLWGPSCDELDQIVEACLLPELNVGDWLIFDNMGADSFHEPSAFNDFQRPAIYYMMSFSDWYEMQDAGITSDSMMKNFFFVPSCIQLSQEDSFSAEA

Assay [4] concerns the target T4, Clover-AZIN1 S367G (edited AZIN1), recombinant fusion protein (human, UniProt O14977 1-448, S367G).
T4 construct: Point mutation introduced by PCR-based site-directed mutagenesis; source: E. coli (pBAD vector), purified recombinant; not shown: Clover, N-terminal, kept
T4 sequence (looked up): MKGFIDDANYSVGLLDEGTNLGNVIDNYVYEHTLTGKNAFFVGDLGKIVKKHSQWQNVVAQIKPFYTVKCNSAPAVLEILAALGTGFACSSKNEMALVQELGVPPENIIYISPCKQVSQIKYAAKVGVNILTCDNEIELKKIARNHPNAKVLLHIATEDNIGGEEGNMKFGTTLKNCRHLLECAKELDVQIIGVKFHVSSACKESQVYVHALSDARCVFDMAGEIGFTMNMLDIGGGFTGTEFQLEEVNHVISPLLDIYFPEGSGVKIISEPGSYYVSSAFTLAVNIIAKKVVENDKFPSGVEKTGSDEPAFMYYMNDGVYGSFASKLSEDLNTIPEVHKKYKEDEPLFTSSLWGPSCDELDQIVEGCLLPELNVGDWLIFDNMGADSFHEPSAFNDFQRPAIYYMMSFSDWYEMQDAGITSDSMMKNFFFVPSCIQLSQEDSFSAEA

In general, Kd refers to the constant that tells how readily two partners part at equilibrium.

B1: antizyme-mRuby2 (AZ-mRuby2), recombinant fusion protein (natural protein)
chain: not shown
notes: antizyme (human OAZ1 gene, codon optimised for E. coli and synthesised de novo); also called hOAZ1; source: E. coli (pBAD vector, codon-optimised gene), purified recombinant
Take B1: the Kd in assay [1] was determined as 40 nM; in assay [2], 22 nM; in assay [3], 39 nM; in assay [4], 57 nM.

Source of the values: paper PMC9636422, “AZIN1 RNA editing alters protein interactions, leading to nuclear translocation and worse outcomes in prostate cancer” (Experimental & Molecular Medicine, 2022).
